Source: PMC9618040, “Cryo-EM structures of light-harvesting 2 complexes from Rhodopseudomonas palustris reveal the molecular origin of absorption tuning” (Proceedings of the National Academy of Sciences of the …, 2022)

What was measured:
[1] = target: PucE-LH2 α-polypeptide (α-apoprotein encoded by the pucBAe gene pair) (Rhodopseudomonas palustris); experiment: cryo-EM structure; single-particle cryo-EM of native LH2 complexes purified from intracytoplasmic membranes of single-pucBA deletion strains, in 0.1% LDAO, 20 mM Tris-Cl pH 8.0; C1 maps with relaxed C9 symmetry; γ encloses six of the nine α/β-heterodimers
[2] = target: PucB-LH2 α-polypeptide (α-apoprotein encoded by the pucBAb gene pair) (Rhodopseudomonas palustris); experiment: as above
[3] = target: PucA-LH2 α-polypeptide (α-apoprotein encoded by the pucBAa gene pair) (Rhodopseudomonas palustris); experiment: as above
[4] = target: PucD-LH2 α-polypeptide (α-apoprotein encoded by the pucBAd gene pair) (Rhodopseudomonas palustris); experiment: as above
PucA-LH2 = target: T1, PucA-LH2 (Rhodopseudomonas palustris, UniProt P35101+P35106+Q6N9P5); experiment: cryo-EM structure of the complex, […] Å; format: binding; details: 9 per complex, between alpha and beta chains; noncovalent
T1 construct: gene pucAA; native nonameric LH2 complex purified in LDAO from a Rps. palustris mutant with only pucBAa; α9β9γ1; alpha Met1 modelled as Cxm; last nine alpha residues untraced
T1 sequence (P35101 whole entry): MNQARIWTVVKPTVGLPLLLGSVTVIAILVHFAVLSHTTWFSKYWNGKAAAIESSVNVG
T1 sequence (P35106 2-47 limits assumed): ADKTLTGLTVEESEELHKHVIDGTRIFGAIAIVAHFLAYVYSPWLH
T1 sequence (Q6N9P5 1-97): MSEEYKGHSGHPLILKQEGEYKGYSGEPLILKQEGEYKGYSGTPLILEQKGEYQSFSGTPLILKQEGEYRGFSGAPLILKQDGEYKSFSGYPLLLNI

PucE-LH2 α-polypeptide (α-apoprotein encoded by the pucBAe gene pair) (natural protein)
stoichiometry N [1]: 9

PucB-LH2 α-polypeptide (α-apoprotein encoded by the pucBAb gene pair) (natural protein)
stoichiometry N [2]: 9

PucA-LH2 α-polypeptide (α-apoprotein encoded by the pucBAa gene pair) (natural protein)
stoichiometry N [3]: 9

PucD-LH2 α-polypeptide (α-apoprotein encoded by the pucBAd gene pair) (natural protein)
stoichiometry N [4]: 9

CC(C)=CCC/C(C)=C/C=C/C(C)=C/C=C/C(C)=C/C=C/C=C(C)/C=C/C=C(C)/C=C/C=C(\C)CCCC(C)(C)O [rhodopin]
cryo-EM structure of the complex, 2.7 Å (PucA-LH2): A carotenoid, rhodopin, is sandwiched between α- and β-polypeptides
